From patent publication US5723436, “Calcineurin interacting protein compositions and methods” (The Board of Trustees of the Leland Stanford Junior …, dated 1998)

Molecular target: GAD (GAL4 activation domain alone, from pGAD) (yeast, UniProt P04386)
Experiment: yeast GAL4 two-hybrid, fusion tested against the complementary GAL4 domain not fused to a second protein

B1: GBT-A2 (G4BD-CNA2) (other)
chain: MKLLSSIEQACDICRLKKLKCSKEKPKCAKCLKNNWECRYSPKTKRSPLTRAHLTEVESRLERLEQLFLLIFPREDLDMILKMDSLQDIKALLTGLFVQDNVNKDAVTDRLASVETDMPLTLRQHRISATSSSEESSNKGQRQLTVSMSSDAIRNTEQINAAIKIIENKTERPQSSTTPIDSKASTVAAANSTATETSRDLTQYTLDDGRVVSTNRRIMNKVPAITSHVPTDEELFQPNGIPRHEFLRDHFKREGKLSAAQAARIVTLATELFSKEPNLISVPAPITVCGDIHGQYFDLLKLFEVGGDPATTSYLFLGDYVDRGSFSFECLIYLYSLKLNFNDHFWLLRGNHECKHLTSYFTFKNEMLHKYNLDIYEKCCESFNNLPLAALMNGQYLCVHGGISPELNSLQDINNLNRFREIPSHGLMCDLLWADPIEEYDEVLDKDLTEEDIVNSKTMVPHHGKMAPSRDMFVPNSVRGCSYAFTYRAACHFLQETGLLSIIRAHEAQDAGYRMYKNTKTLGFPSLLTLFSAPNYLDTYNNKAAILKYENNVMNIRQFNMTPHPYWLPDFMDVFTWSLPFVGEKVTEMLVAILNICTEDELENDTPVIEELVGTDKKLPQAGKSEATPQPATSASPKHASILDDEHRRKALRNKILAVAKVSRMYSVLREETNKVQFLKDHNSGVLPRGALSNGVKGLDEALSTFERARKHDLINEKLPPSLDELKNENKKYYEKVWQKVHEHDAKNDSK
B1: no binding.

B2: GBT-A1 (G4BD-CNA1) (other)
chain: MKLLSSIEQACDICRLKKLKCSKEKPKCAKCLKNNWECRYSPKTKRSPLTRAHLTEVESRLERLEQLFLLIFPREDLDMILKMDSLQDIKALLTGLFVQDNVNKDAVTDRLASVETDMPLTLRQHRISATSSSEESSNKGQRQLTVSMSKDLNSSRIKIIKPNDSYIKVDRKKDLTKYELENGKVISTKDRSYASVPAITGKIPSDEEVFDSKTGLPNHSFLREHFFHEGRLSKEQAIKILNMSTVALSKEPNLLKLKAPITICGDIHGQYYDLLKLFEVGGDPAEIDYLFLGDYVDRGAFSFECLIYLYSLKLNNLGRFWMLRGNHECKHLTSYFTFKNEMLHKYDMEVYDACCRSFNVLPLAALMNGQYFCVHGGISPELKSVEDVNKINRFREIPSRGLMCDLLWADPVENYDDARDGSEFDQSEDEFVPNSLRGCSFAFTFKASCKFLKANGLLSIIRAHEAQDAGYRMYKNNKVTGFPSLITMFSAPNYLDTYHNKAAVLKYEENVMNIRQFHMSPHPYWLPDFMDVFTWSLPFVGEKVTSMLVSILNICSEQELDPESEPKAAEETVKARANATKETGTPSDEKASSAILEDETRRKALRNKILAIAKVSRMFSVLREESEKVEYLKTMNAGVLPRGALARGTEGLNETLSTFEKARKEDLINEKLPPSLSEVEQEKIKYYEKILKGAEKKPQL
B2: no binding.
